Experimental data taken from paper PMC9922282, “Small molecule inhibitors of 15-PGDH exploit a physiologic induced-fit closing system” (Nature Communications, 2023).
Numbering of substitutions follows the chain as printed. Numbers in names are those of the source.

Key:
15-PGDH = target: T1, 15-PGDH (Homo sapiens, UniProt P15428); experiment: cryo-EM structure of the 15-PGDH-NADH complex ([…] Å); thermal shift; format: binding
T1 construct: gene HPGD; recombinant human 15-PGDH with C-terminal TEV-cleavable 6xHis tag, homodimer
T1 sequence (P15428 1-256): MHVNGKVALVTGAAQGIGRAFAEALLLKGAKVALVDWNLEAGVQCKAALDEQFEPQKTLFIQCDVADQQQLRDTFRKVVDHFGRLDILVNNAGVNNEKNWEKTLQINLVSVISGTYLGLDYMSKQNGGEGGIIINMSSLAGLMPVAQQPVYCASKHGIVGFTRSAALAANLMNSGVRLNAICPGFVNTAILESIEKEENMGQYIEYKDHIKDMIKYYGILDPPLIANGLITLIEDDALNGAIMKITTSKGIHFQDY

[1] = substrate: CCCCC[C@H](O)/C=C/[C@H]1[C@H](O)CC(=O)[C@@H]1C/C=C\CCCC(=O)O; experiment: Michaelis-Menten kinetics of PGE2 oxidation (Km); format: biochemical, Homo sapiens; conditions: NAD+ active site

NC(=O)C1=CN([C@@H]2O[C@H](COP(=O)(O)OP(=O)(O)OC[C@H]3O[C@@H](n4cnc5c(N)ncnc54)[C@H](O)[C@@H]3O)[C@@H](O)[C@H]2O)C=CC1 [NADH]
cryo-EM structure of the 15-PGDH-NADH complex (3.3 Å); thermal shift (15-PGDH): we employed cryo-EM to solve the structure of the 15-PGDH-NADH complex in the absence of inhibitor

B1: 15-PGDH (Homo sapiens) (protein)
chain: MHVNGKVALVTGAAQGIGRAFAEALLLKGAKVALVDWNLEAGVQCKAALDEQFEPQKTLFIQCDVADQQQLRDTFRKVVDHFGRLDILVNNAGVNNEKNWEKTLQINLVSVISGTYLGLDYMSKQNGGEGGIIINMSSLAGLMPVAQQPVYCASKHGIVGFTRSAALAANLMNSGVRLNAICPGFVNTAILESIEKEENMGQYIEYKDHIKDMIKYYGILDPPLIANGLITLIEDDALNGAIMKITTSKGIHFQDYDTTPFQAKTQ
notes: recombinant human 15-PGDH with C-terminal TEV-cleavable 6xHis tag
Km [1]: 2.2 µM

B2: 15-PGDH (Homo sapiens; Y217A) (protein)
chain: B1 chain with Y217A
notes: as for B1
Km [1]: 11 µM
